Experimental findings from doi:10.1101/2021.03.03.433707 are described below.

The target in the test is MukB, full length, wild type (E. coli) (UniProt P22523). The test can be described thus: fluorescence correlation spectroscopy.
MukB, full length, wild type (E. coli), sequence (P22523 whole entry): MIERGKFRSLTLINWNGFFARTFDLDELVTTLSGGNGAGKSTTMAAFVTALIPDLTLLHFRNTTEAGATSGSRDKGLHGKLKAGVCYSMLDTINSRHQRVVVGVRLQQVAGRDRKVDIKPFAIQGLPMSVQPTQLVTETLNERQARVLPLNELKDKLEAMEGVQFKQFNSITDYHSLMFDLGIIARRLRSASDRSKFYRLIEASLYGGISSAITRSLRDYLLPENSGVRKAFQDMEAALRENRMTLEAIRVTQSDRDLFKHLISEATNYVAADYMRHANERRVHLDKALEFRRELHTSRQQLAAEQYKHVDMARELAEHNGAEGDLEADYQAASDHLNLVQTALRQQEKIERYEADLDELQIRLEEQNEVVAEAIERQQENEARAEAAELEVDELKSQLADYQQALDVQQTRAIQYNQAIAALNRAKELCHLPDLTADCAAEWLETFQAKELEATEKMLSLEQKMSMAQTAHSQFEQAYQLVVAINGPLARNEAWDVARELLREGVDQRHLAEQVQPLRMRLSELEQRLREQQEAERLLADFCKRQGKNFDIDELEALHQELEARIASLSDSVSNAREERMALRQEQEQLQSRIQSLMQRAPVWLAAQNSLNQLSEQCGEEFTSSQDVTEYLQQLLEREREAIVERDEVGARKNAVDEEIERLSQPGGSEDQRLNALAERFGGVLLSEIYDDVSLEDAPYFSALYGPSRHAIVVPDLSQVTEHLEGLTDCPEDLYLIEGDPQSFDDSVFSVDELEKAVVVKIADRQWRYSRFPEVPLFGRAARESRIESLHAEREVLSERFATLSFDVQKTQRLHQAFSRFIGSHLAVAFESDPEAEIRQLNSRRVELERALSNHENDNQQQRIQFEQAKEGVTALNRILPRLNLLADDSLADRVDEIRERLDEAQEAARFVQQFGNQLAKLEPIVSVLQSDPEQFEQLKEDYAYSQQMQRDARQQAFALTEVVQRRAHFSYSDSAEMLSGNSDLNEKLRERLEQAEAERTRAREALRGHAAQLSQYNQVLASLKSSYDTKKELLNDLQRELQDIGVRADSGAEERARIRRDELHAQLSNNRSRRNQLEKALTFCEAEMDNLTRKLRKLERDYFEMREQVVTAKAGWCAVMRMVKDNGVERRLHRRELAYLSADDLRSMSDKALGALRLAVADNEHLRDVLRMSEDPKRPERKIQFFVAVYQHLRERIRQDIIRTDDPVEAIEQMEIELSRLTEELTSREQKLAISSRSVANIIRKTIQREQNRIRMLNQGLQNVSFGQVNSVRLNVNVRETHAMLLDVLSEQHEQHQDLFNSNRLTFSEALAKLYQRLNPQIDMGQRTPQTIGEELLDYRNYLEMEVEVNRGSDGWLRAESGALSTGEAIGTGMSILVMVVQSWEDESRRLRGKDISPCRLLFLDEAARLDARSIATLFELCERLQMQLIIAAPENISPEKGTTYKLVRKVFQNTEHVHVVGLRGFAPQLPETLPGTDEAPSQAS

MBP-ParC^CTD (ParC C-terminal domain with N-terminal MBP fusion) (domain or fragment), sequence (P0AFI2 whole entry, the tested form may be a part): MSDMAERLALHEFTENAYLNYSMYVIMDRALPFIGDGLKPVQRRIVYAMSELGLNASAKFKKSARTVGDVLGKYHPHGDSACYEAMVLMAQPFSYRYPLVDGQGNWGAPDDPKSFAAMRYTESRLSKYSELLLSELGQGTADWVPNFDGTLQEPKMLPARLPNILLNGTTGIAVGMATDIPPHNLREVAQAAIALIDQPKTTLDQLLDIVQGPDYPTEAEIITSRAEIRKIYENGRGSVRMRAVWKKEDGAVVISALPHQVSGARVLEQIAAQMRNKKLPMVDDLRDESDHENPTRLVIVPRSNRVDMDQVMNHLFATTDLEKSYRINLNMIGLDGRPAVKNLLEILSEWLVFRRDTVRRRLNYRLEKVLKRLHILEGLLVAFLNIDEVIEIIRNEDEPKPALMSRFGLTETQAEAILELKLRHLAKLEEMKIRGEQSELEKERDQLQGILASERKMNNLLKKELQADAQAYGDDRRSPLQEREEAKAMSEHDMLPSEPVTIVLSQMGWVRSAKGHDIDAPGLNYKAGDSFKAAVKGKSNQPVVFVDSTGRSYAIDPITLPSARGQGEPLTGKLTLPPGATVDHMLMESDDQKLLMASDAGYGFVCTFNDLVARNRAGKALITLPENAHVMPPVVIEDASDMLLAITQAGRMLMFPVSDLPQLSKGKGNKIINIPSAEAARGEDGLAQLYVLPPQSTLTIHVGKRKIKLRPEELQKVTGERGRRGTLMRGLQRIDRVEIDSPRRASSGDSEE

Take “MBP-ParC^CTD (ParC C-terminal domain with N-terminal MBP fusion) (domain or fragment)”: the fold decrease in MatP-Cy3B binding to MukB at a 10-fold excess of competitor was 3 fold.
